Data as given in patent publication US20210206842A1 (NATIONAL RESEARCH COUNCIL OF CANADA, published 2021).

Tests used:
human Nav1.7 polypeptide [1] = biological target: T1, human Nav1.7 polypeptide (human, UniProt Q15858 1-1988); assay: cell-based or functional assay
VHH FC5 [2] = biological target: T2, VHH FC5; assay: SPR, mAb 1G5 and FC5, 25 C
T2 construct: put together from its FR and CDR entries; also called FC5-VHH; FC5 control

[3] = biological target: T3, FC5DIE3IR recombinant protein; assay: SPR, mAb 1G5 and FC5DIE3IR, 25 C
T3 construct: Made in CHO-3E7 cells; also called FC5DIE31R; FC5DIE3R

VHH FC5 [4] = biological target: T2, VHH FC5; assay: ELISA, hybridoma supernatant on coated purified FC5-VHH
Experimental: (§1) Screening. Hybridoma supernatants were screened by ELISA to detect specific binders. To this end, 96-well half-area plates (Costar #3690) were coated with 25 μl of FC5DIE3IR or FC5-VHH or FC5-hFc-1X0 at 5 μg/ml in PBS and incubated overnight at 4° C. Microplates were washed 3 times with PBS, blocked with PBS-BSA 1%, and 25 μl of hybridoma supernatants were added and incubated at 37° C., 5% CO₂ for 2 hours. […] After 4 washes with PBS-Tween 20 0.05%, 25 μl of a 1 mg/ml pNPP substrate solution was added and further incubated for one hour at 37° C.

[5] = biological target: T3, FC5DIE3IR recombinant protein; assay: ELISA, hybridoma supernatant on coated purified FC5DIE3IR
Experimental: as §1

human Nav1.7 polypeptide [6] = biological target: T1, human Nav1.7 polypeptide; assay: cell ELISA, hybridoma supernatant on live CHO cells expressing human Nav1.7, duplicate 1
Experimental: (§2) Cell-ELISA. Sterile 96-well plates (Costar #3595) were pre-treated with 50 μl/well of branched polyethyleneimine (PEI, Sigma Cat #408727) at 25 μg/ml in PBS for 30 min at room temperature. PEI was removed and CHO-3E7 or hNAᵥ1.7-CHO (ChanTest cat #CT4003) were seeded at 6×10⁵ cells per well in FreeStyle F17 Expression Medium (Gibco Cat #A1383501) and incubated overnight at 37° C., 5% CO₂. Microplates were blocked with Starting block (Thermofisher Cat #37538) for 30 min at room temperature, and 50 μl of hybridoma supernatants were added and incubated at 4° C. for 3 h. […] After 10 washes with PBS, 50 μl of TMB substrate solution (Pierce Cat #34021) was added and further incubated for 60 min at room temperature.

human Nav1.7 polypeptide [7] = biological target: T1, human Nav1.7 polypeptide; assay: cell ELISA, hybridoma supernatant on live CHO cells expressing human Nav1.7, duplicate 2
Experimental: as §2

[8] = biological target: T3, FC5DIE3IR recombinant protein; assay: apparent KD (Kdapp), ELISA dose curve of purified mAb on coated FC5DIE3IR; 1G5 clone (IgG1), ELISA apparent KD
Experimental: as §1
(§3) Evaluation of apparent affinity in ELISA. Purified antibodies were assessed for their binding activity by ELISA in a dose-dependent binding curve. Serial 1/3 dilutions of purified mAbs starting at 120 nM were applied onto wells and ELISA was performed as described above (screening section). The data were analyzed with GraphPad Prism software using one-site specific binding-with Hill slope non-linear regression curve fit model to determine Bₘₐₓ (maximum specific binding) and Kdₐₚₚ (concentration needed to achieve a half-maximum binding at equilibrium) for each mAb tested.

[9] = biological target: T3, FC5DIE3IR recombinant protein; assay: ELISA on coated FC5DIE3IR, serial dilutions of purified mAb; fit One site - Specific binding with Hill slope
Experimental: as §1, §3

[10] = biological target: T3, FC5DIE3IR recombinant protein; assay: ELISA on coated FC5DIE3IR, serial dilutions of purified mAb, OD 405 nm; fit One site - Specific binding with Hill slope; apparent Kd in the unit of the concentration axis (nM), the table itself prints no unit
Experimental: as §1, §3

human Nav1.7 polypeptide [11] = biological target: T1, human Nav1.7 polypeptide; assay: cell-based or functional assay; remark: listed apart in the source
[12] = biological target: T3, FC5DIE3IR recombinant protein; assay: ELISA dose curve of purified mAb on coated FC5DIE3IR
Experimental: as §1, §3

peptide #2a (20 aa) = biological target: T4, peptide #2a (20 aa) (human); assay: ELISA on coated P2a, mAb at the dilutions 1:1000, 1:5000 and 1:10000, Abs 450nm
T4 construct: Custom-synthesized (Biomatik); also called pep #2a; P2a
T4 peptide: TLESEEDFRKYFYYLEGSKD
Experimental: (§4) The peptides were custom-synthesized (Biomatik) and tested for antibody binding by ELISA. […] The wells were blocked with 1% BSA in TBS-T for 30 min and then incubated with 1:1000 dilution of anti-hNaᵥ1.7 mAb at room temperature (RT) for one hr.

peptide #2 (30 aa) = biological target: T5, peptide #2 (30 aa) (human); assay: ELISA on coated peptide or FC5DIE3IR, mAb detected with HRP anti-mouse Fc, Abs 450nm
T5 construct: Custom-synthesized (Biomatik); also called pep #2; P2
T5 peptide: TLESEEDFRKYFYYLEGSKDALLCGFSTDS
Experimental: as §4

peptide #3 (30 aa) = biological target: T6, peptide #3 (30 aa) (human); assay: as above
T6 construct: Custom-synthesized (Biomatik); also called pep #3; P3
Experimental: as §4

peptide #40a (40 aa) = biological target: T7, peptide #40a (40 aa) (human); assay: as above
T7 construct: Custom-synthesized (Biomatik); also called pep #40a; P40a
T7 peptide: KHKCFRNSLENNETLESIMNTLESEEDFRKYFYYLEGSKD
Experimental: as §4

[13] = biological target: T3, FC5DIE3IR recombinant protein; assay: apparent KD (Kdapp), ELISA dose curve of purified mAb on coated FC5DIE3IR; 3A8 clone (IgG2a), ELISA apparent KD
Experimental: as §1, §3

[14] = biological target: T3, FC5DIE3IR recombinant protein; assay: SPR (Biacore T200), single cycle kinetics, Fc-captured mAb, FC5DIE3IR flowed (320 nM-20 nM), 1:1 model, 25 C
Experimental: (§5) HBS-EP running buffer used for SPR experiments. […] Test binding experiments of FC5 control and FC5DIE3IR involved flowing 1 μM concentrations of SEC-pure material over the mAb surface at a flow rate of 30 μl/min for 5 min. Surfaces could be regenerated using 10 mM glycine, pH 1.7, with a 120 sec pulse at 20 μl/min. All SPR experiments were evaluated with Biacore T200 Software v 3.0. […] Regeneration conditions were the same as above. Data were fit to a 1:1 binding model and analyzed using the Biacore T200 Software v3.0.

[15] = biological target: T3, FC5DIE3IR recombinant protein; assay: SPR (Biacore T200), ligand 3A8 captured by anti-mouse IgG, FC5DIE3IR flowed at 1 µM, 25 °C, 1:1 binding model
Experimental: as §5

[16] = biological target: T3, FC5DIE3IR recombinant protein; assay: SPR single cycle kinetics, ligand 3A8 Fc-captured, FC5DIE3IR flowed in five rising concentrations, 1:1 binding model
Experimental: as §5

VHH FC5 [17] = biological target: T2, VHH FC5; assay: SPR (Biacore T200), ligand 3A8 captured by anti-mouse IgG, VHH FC5 flowed at 1 µM, 25 °C, 1:1 binding model; the fit is printed under a flat sensorgram and the filing says that 3A8 did not bind FC5
Experimental: as §5

VHH FC5 [18] = biological target: T2, VHH FC5; assay: SPR (Biacore T200), ligand 3A8 captured by anti-mouse IgG, VHH FC5 flowed at 1 µM, 25 °C, 1:1 binding model; the label reads KD: without a unit, M follows from kd/ka; the fit is printed under a flat sensorgram and the filing says that 3A8 did not bind FC5
Experimental: as §5

T2 sequence (VHH, as listed by the source): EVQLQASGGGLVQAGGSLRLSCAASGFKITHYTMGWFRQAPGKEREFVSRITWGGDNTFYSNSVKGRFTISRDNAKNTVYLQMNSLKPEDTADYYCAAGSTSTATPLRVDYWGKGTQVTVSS
T6 sequence (peptide, as listed by the source): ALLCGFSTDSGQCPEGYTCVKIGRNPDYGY

B1: mAb 1G5 (antibody, V domains shown)
VH: QVQLQQPGAELVKPGASVKLSCKASGYTFTSYWINWVKQRPGQGLEWIGNIYPGNSNTNYNEKFKSKATLTVDKSSSTAYMQLSSLTSEDSAVYYCARRYYYDYDDAMDYWGQGTSVTVSS
VL: DIVLTQSPASLAVSLGQRATISCRASESVDSYGNGFMHWYQQKPGQPPKLLIYRASNLESGIPARVSGSGSRTDFTLTINPVEADDVATYYCQQSNEDPWTFGGGTKLEIK
notes: also called negative control
Human Nav1.7 polypeptide [1]
  Reduction currents (%) at 1 µM: 0.77%
VHH FC5 [2]
  Kd: 58.8 nM
  koff: 0.017 s⁻¹
  kon: 289000 M⁻¹ s⁻¹
[3]
  Kd: 186 nM
  koff: 0.0136 s⁻¹
  kon: 72900 M⁻¹ s⁻¹
VHH FC5 [4]
  ELISA signal (OD 405 nm): 0.096 OD 405 nm
[5]
  ELISA signal (OD 405 nm): 1.14 OD 405 nm
Human Nav1.7 polypeptide [6]
  cell ELISA signal (OD 450 nm): 0.172 OD 450 nm
Human Nav1.7 polypeptide [7]
  cell ELISA signal (OD 450 nm): 0.225 OD 450 nm
[8]
  Kd: 4.8 nM
[9]
  Bmax: 0.635 OD405 nm
[10]
  Kd: 5.04 nM

B2: anti-hNav1.7 mAb 3A8 (antibody, V domains shown)
VH: QVQLQQPGAELVKPGASVKLSCKASGYTFTNYWMHWVKQRPGQGLEWIGEINPSNGRANYNEKFKSKATLTVDKSSSTAYMQLSSLTSEDSAVYYCARSPYGYYDYWGQGTTLTVSS
VL: DVLMTQTPLSLPVSLGDQASISCRSSQSLLHSNGNTYFHWYLQKPGQSPKLLIYKVSNRFFGVPDRFSGSGSGTDFTLKISRVEAEDLGVYFCSQITHVPLTFGAGTKLELK
notes: also called F233-3A8
Human Nav1.7 polypeptide [11]
  concentration response relationship (IC50), hNav1.7 currents, whole-cell patch clamp, hNav1.7-HEK293 cells: 900 nM
Human Nav1.7 polypeptide [1]
  Concentration response relationship (IC50), hNav1.7 currents, whole-cell patch clamp, hNav1.7-HEK293 cells, resting/closed state: 850 nM
  Efficacy (degree of maximum inhibition) %: 16%
  Reduction currents (%) at 0.5 µM: 3.6%
  Reduction currents (%) at 1 µM: 8.2%
  Reduction currents (%) at 2 µM: 16%
  Reduction currents (%) at 3 µM: 15.4%
  Time constant of the block of the hNav1.7 currents (1 µM): 184 s
  Time constant of the block of the hNav1.7 currents (2 µM): 105 s
[12]
  fold lower apparent KD than the 1G5 clone: ~2.5 fold
VHH FC5 [4]
  ELISA signal (OD 405 nm): 0.029 OD 405 nm
[5]
  ELISA signal (OD 405 nm): 0.995 OD 405 nm
Peptide #2a (20 aa)
  binding result: binds
Human Nav1.7 polypeptide [6]
  cell ELISA signal (OD 450 nm): 0.102 OD 450 nm
Human Nav1.7 polypeptide [7]
  cell ELISA signal (OD 450 nm): 0.183 OD 450 nm
Peptide #2 (30 aa)
  binding result: binds
Peptide #3 (30 aa)
  binding result: no binding
Peptide #40a (40 aa)
  binding result: binds
[13]
  Kd: 1.9 nM
[14]
  Kd: 36.7 nM
  koff: 0.000259 s⁻¹
  kon: 7050 M⁻¹ s⁻¹
[9]
  Bmax: 2.15 OD405 nm
[15]
  Kd: 17.1 nM
  koff: 4.52e-05 s⁻¹
  kon: 2640 M⁻¹ s⁻¹
[16]
  Kd: 7.59 nM
  koff: 3.15e-05 s⁻¹
  kon: 4160 M⁻¹ s⁻¹
VHH FC5 [17]
  koff: 0.0138 s⁻¹
  kon: 28700 M⁻¹ s⁻¹
[10]
  Kd: 1.84 nM
VHH FC5 [18]
  Kd: 482 nM
